Substitutions are numbered along the chain they refer to. One block for each molecule: values may come before it.
Columns and labels:
[1] = biological target: T1, recombinant human GM-CSF (Peprotech) (human, UniProt P04141 18-144); assay: SPR (BIAcore); recombinant human GM-CSF coated on CM5 chip, antibody injected at 66.7-4.17 nM
Experimental: The binding kinetics of the 4K21 monoclonal antibody was determined using a Biacore and compared with the binding kinetics for a commercially available rat anti-human GM-CSF antibody from BD Biosciences (BD; Cat No. 554501) (see Table 1 below). Recombinant human GM-CSF was coated onto a CM5 chip to determine the binding kinetics of the 4K21 antibody. An uncoated flow cell was used as a reference. The antibody, prepared in HBS-EP at concentrations of 66.7 nM to 4.17 nM with 2-fold serial dilution, was injected for 2 minutes with a stabilisation time of 10 minutes and dissociation time of 15 minutes. The BIACore kinetic analysis wizard was run to determine each antibody's association (ka [1/Ms]), dissociation (kd[1/s]) and affinity (KD [nM]) to GM-CSF.

[2] = biological target: T1, recombinant human GM-CSF (Peprotech); assay: SPR (BIAcore); recombinant human GM-CSF coupled to CM5 chip, antibody injected at 66.7-4.17 nM
Experimental: A second experiment was performed to determine the kinetics with which these antibodies bind to human GM-CSF. A range of antibody concentration was prepared in HBS-EP from 66.7 nM to 4.17 nM with 2-fold serial dilution. Again direct binding was quantitated using recombinant GM-CSF coupled to a CM5 chip—an uncoated flow cell was used as a reference. The antibody at each concentration was injected for 2 minutes with a stabilisation time of 10 minutes and dissociation time of 15 minutes. The BIACore kinetic analysis wizard was run to determine each antibody's association (ka [1/Ms]), dissociation (kd[1/s]) and affinity (KD [nM]) to GM-CSF.

[3] = biological target: T1, recombinant human GM-CSF (Peprotech); assay: BIAcore, recombinant human GM-CSF amine-coupled to a CM5 chip, antibody at 1 ug/ml injected for 3 min
Experimental: The binding affinity of the humanized antibodies was determined by BIACore analysis. Recombinant GM-CSF (Peprotech) at 100 μg/ml was prepared in sodium acetate, pH5, and immobilised to a CM5 sensor chip by amine coupling. Approximately 1200RU bound to the chip. The first experiment was to determine the binding activity of 15 humanized antibodies. These antibodies were prepared in HBS-EP at 1 μg/ml, injected for 3 minutes and compared to murine 4K21 and a commercially available anti GM-CSF antibody (BD).

[4] = biological target: T1, recombinant human GM-CSF (Peprotech); assay: cell-based or functional assay

T1 sequence (P04141 18-144 limits assumed): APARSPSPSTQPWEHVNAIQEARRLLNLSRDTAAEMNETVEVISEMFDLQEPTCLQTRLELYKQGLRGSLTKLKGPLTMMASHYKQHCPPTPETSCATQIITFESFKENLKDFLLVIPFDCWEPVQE

Molecule: commercially available rat anti-human GM-CSF antibody from BD Biosciences (Cat No. 554501)
- Ka [1]: > 5.2e+09 M⁻¹
- Kd [1]: < 190 pM
- koff [1]: < 1e-05 s⁻¹
- kon [1]: 52000 M⁻¹ s⁻¹
- Ka [2]: > 5.2e+09 M⁻¹
- Kd [2]: < 190 pM
- koff [2]: < 1e-05 s⁻¹
- kon [2]: 52000 M⁻¹ s⁻¹

B1: hGM4/2 (antibody, V domains shown)
VH: EVQLVESGGGLVQPGGSLRLSCAASGFAFSAYDMSWVRQAPGKGLEWVSYISSGGSSFYYPDTVKGRFTISRDNAKNSLYLQMNSLRAEDTAVYYCARHLGFDYWGQGTLVTVSS
VL: DVVMTQSPLSLPVTLGQPASISCRSSQSLVNSNGNTYLHWFQQRPGQSPRRLIYKVSNRFSGVPDRFSGSGSGTDFTLKISRVEAEDVGVYYCSQSTHVPPTFGGGTKVEIK
notes: Heavy h4/20 with human gamma 1 constant (hG1), light h4a with human kappa constant (hKa); also called h4K21-2
- Ka [2]: 3.5e+09 M⁻¹
- Kd [2]: 290 pM
- koff [2]: 4.7e-05 s⁻¹
- kon [2]: 160000 M⁻¹ s⁻¹

B2: hGM4/12 (antibody, V domains shown)
VH: B1 VH
VL: B1 VL with L15P, Q17E, F41Y, Q42L, R44K, R50Q, R51L
notes: Heavy h4/20 with human gamma 1 constant (hG1), light h4c with human kappa constant (hKa); also called h4K21-12
- binding result [3]: binds

B4: hGM4/3 (antibody, V domains shown)
VH: B1 VH with A23S, S49A, Y80F, N84S, L110T
VL: B1 VL
notes: Heavy h4/30 with human gamma 1 constant (hG1), light h4a with human kappa constant (hKa); also called h4K21-3; 4K21-3
- Ka [2]: 7.1e+09 M⁻¹
- Kd [2]: 140 pM
- koff [2]: 3e-05 s⁻¹
- kon [2]: 210000 M⁻¹ s⁻¹

B5: hGM4/13 (antibody, V domains shown)
VH: B1 VH with A23S, S49A, Y80F, N84S, L110T
VL: B1 VL with L15P, Q17E, F41Y, Q42L, R44K, R50Q, R51L
notes: Heavy h4/30 with human gamma 1 constant (hG1), light h4c with human kappa constant (hKa); also called h4K21-13
- binding result [3]: binds

B7: hGM4/11 (antibody, V domains shown)
VH: QVQLQESGGGLVKPGGSLKLSCAASGFAFSAYDMSWVRQTPDKRLEWVAYISSGGSSFYYPDTVKGRFTISRDNAKNTLYLQMSSLKSEDTAMYYCARHLGFDYWGQGTMVTVSS
VL: B1 VL with L15P, Q17E, F41Y, Q42L, R44K, R50Q, R51L
- EC50, TF-1 cell growth (3H-thymidine) with GM-CSF [4]: 5130 pM

B9: hGM4/15 (antibody, V domains shown)
VH: B1 VH with Q13K, P14S, R19T, V37I, R87K, A88D
VL: B1 VL with L15P, Q17E, F41Y, Q42L, R44K, R50Q, R51L
notes: Heavy h4/50 with human gamma 1 constant (hG1), light h4c with human kappa constant (hKa); also called h4K21-15
- binding result [3]: binds

B10: hGM4/1 (antibody, V domains shown)
VH: B7 VH
VL: B1 VL
notes: Heavy h4/10 with human gamma 1 constant (hG1), light h4a with human kappa constant (hKa); also called h4K21-1; 4K21-1
- Ka [2]: 7.7e+09 M⁻¹
- Kd [2]: 130 pM
- koff [2]: 3.8e-05 s⁻¹
- kon [2]: 290000 M⁻¹ s⁻¹

The remaining lines, values ahead:

- Ka [2]: 7.6e+09 M⁻¹
- Kd [2]: 130 pM
- koff [2]: 1.9e-05 s⁻¹
- kon [2]: 140000 M⁻¹ s⁻¹
B3: hGM4/5 (antibody, V domains shown)
VH: B1 VH with Q13K, P14S, R19T, V37I, R87K, A88D
VL: B1 VL
notes: Heavy h4/50 with human gamma 1 constant (hG1), light h4a with human kappa constant (hKa); also called h4K21-5

- EC50, TF-1 cell growth (3H-thymidine) with GM-CSF [4]: 311 pM
- Ka [1]: > 5.9e+09 M⁻¹
- Kd [1]: < 170 pM
- koff [1]: < 1e-05 s⁻¹
- kon [1]: 59000 M⁻¹ s⁻¹
- Ka [2]: > 5.9e+09 M⁻¹
- Kd [2]: < 170 pM
- koff [2]: < 1e-05 s⁻¹
- kon [2]: 59000 M⁻¹ s⁻¹
B6: murine monoclonal antibody 4K21-O11-E14 (antibody, V domains shown)
VH: B7 VH with Q1E, Q5V, P14S, D42E, W47L, A97T, M110T, V111L
VL: DVVMTQTPLSLPVSLGDQASISCRSSQSLVNSNGNTYLHWFLQKPGQSPKLLIYKVSNRFSGVPDRFSGSGSGTDFTLKISRVEAEDLGVYFCSQSTHVPPTFGGGTKLEIK
notes: Murine hybridoma antibody (ECACC 07051601); also called 4K21-O11-E14 (mouse); mAb 4K21

- binding result [3]: no binding (tested: 1 ug/ml)
B8: hGM4/14 (antibody, V domains shown)
VH: B1 VH with S17F, E46V, S78T, V93M, A97T, R98F, L110T
VL: B1 VL with L15P, Q17E, F41Y, Q42L, R44K, R50Q, R51L
notes: also called h4K21-14; humanised 4K21-14

- Ka [2]: 1.2e+10 M⁻¹
- Kd [2]: 81 pM
- koff [2]: 1.6e-05 s⁻¹
- kon [2]: 200000 M⁻¹ s⁻¹
B11: hGM4/6 (antibody, V domains shown)
VH: B7 VH
VL: B1 VL with G105Q, V109L
notes: Heavy h4/10 with human gamma 1 constant (hG1), light h4b with human kappa constant (hKa); also called h4K21-6

- EC50, TF-1 cell growth (3H-thymidine) with GM-CSF [4]: 220 pM
B12: hGM4/34 (antibody, V domains shown)
VH: B7 VH with W47L, A97T
VL: B1 VL with L15P, Q17E, F41Y, Q42L, R44K, R50Q, R51L

- EC50, TF-1 cell growth (3H-thymidine) with GM-CSF [4]: 1190 pM
B13: hGM4/21 (antibody, V domains shown)
VH: B7 VH with W47L
VL: B1 VL with L15P, Q17E, F41Y, Q42L, R44K, R50Q, R51L

- EC50, TF-1 cell growth (3H-thymidine) with GM-CSF [4]: 2120 pM
B14: hGM4/22 (antibody, V domains shown)
VH: B7 VH with A97T
VL: B1 VL with L15P, Q17E, F41Y, Q42L, R44K, R50Q, R51L

From US20110044996A1 (published 2011)
